Article PMC6092394

How the values were obtained:
[1] = biological target: TRPC5, CFP- or YFP-tagged (UniProt Q9QX29); assay: FRET or BRET; three-cube FRET in living cells expressing Gαq (WT)-YFP, M3 and TRPC1α with TRPC4β-CFP or CFP-TRPC5; after stimulation with 100 μM CCh
[2] = biological target: TRPC4β, CFP- or YFP-tagged (UniProt Q9QUQ5); assay: as above
Sequence of UniProt Q9QUQ5 (Q9QUQ5 other isoform, or with tags, fused parts or gaps): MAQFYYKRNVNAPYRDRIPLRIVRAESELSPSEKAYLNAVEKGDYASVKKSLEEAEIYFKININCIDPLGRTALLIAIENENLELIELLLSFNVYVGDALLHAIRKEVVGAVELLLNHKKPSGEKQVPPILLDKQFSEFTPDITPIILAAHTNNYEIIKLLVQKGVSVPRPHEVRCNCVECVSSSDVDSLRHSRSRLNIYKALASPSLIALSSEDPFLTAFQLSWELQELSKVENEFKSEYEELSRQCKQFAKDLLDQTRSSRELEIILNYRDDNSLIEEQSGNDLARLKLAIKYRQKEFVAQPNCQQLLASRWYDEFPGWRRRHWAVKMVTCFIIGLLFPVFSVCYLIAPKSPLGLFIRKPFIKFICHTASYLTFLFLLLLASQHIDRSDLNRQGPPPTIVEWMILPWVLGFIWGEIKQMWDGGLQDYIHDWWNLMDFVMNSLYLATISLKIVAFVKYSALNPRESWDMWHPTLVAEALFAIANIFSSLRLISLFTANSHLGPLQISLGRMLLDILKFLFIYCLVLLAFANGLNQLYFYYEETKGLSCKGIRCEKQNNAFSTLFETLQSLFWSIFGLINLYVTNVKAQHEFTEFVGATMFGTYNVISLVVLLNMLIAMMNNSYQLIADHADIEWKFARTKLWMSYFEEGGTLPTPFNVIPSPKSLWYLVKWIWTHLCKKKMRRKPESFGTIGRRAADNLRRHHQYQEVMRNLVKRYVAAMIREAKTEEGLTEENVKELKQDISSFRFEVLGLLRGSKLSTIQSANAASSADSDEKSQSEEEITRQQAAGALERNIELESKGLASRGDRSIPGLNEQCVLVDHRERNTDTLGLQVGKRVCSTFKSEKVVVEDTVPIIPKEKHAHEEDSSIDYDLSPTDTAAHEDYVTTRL

Sequence of UniProt Q9QX29 (Q9QX29 whole entry): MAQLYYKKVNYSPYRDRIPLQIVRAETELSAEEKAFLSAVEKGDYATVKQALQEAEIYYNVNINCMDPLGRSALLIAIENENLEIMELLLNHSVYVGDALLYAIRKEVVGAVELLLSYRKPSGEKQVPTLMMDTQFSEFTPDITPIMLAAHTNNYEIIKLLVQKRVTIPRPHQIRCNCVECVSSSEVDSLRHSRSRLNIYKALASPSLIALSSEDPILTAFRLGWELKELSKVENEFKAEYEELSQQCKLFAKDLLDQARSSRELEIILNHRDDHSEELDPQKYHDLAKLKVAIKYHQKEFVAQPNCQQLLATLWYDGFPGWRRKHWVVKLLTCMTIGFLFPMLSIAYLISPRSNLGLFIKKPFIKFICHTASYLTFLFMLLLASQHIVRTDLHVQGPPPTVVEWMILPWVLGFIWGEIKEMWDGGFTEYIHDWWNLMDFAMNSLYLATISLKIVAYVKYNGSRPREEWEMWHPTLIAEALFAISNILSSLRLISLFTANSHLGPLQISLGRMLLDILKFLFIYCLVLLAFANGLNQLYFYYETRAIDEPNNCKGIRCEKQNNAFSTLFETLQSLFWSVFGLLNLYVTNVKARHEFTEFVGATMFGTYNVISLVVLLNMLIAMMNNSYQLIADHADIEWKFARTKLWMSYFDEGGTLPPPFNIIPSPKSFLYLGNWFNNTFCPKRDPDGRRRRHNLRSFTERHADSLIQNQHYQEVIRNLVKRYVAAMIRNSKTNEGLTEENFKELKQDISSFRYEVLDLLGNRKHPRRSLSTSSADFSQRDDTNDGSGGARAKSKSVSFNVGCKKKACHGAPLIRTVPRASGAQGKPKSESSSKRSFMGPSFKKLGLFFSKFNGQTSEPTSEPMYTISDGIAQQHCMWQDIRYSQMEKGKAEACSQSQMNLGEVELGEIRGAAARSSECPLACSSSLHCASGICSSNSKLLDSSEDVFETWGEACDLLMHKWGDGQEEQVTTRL

Gαq (WT)-YFP (from UniProt P50148 1-359) (natural protein)
FRET efficiency (after 100 μM CCh) [1]: 15.9%
FRET efficiency (after 100 μM CCh) [2]: 8.8%
